Columns and labels:
[1] = target: WDR5 (UniProt P61964); assay: biotin-peptide streptavidin pull-down, anti-GST blot; details: reference: unmodified H3 peptide; sites T11
[2] = target: WDR5 (UniProt P61964); assay: peptide pull-down, silver stain, MALDI-TOF identification; details: reference: unmodified H3 peptide; sites T11

binding against the reference [1]: stronger
binding against the reference [2]: stronger
Substance: histone H3 (synthetic tail peptides) 1-21 (from UniProt P68431) H3T11P peptide

Source: PMC4075454
